Laboratory results: US7029676B2

Assays:
[1] = molecular target: integrin β1 subunit (human) (UniProt P05556)
Human E-cadherin (human) [2] = molecular target: Human E-cadherin (human)
Human E-cadherin (human) [3] = molecular target: Human E-cadherin (human); remark: listed apart in the source
Human E-cadherin (human) [4] = molecular target: Human E-cadherin (human); remark: listed apart in the source
Human E-cadherin (human) [5] = molecular target: Human E-cadherin (human); remark: listed apart in the source

4B4 (antibody)
inhibition of IEL adhesion to the 16E6.A5 epithelial cell monolayer [1]: 21%

α^4β7 integrin (from UniProt P13612) (receptor)
adhesion of COS-7 transfectants to 16E6.A5 monolayers (percent bound) (Human E-cadherin (human) [2]): 9% | adhesion of COS-7 transfectants to L-M E-cadherin transfectants (percent bound) (Human E-cadherin (human) [3]): 16%

α^Eβ7 integrin (from UniProt P38570) (receptor)
adhesion of α^Eβ7 COS-7 transfectants to L-M monolayers (Human E-cadherin (human) [4]): 79% | adhesion of IEL to L-M monolayers (percent of IEL bound) (Human E-cadherin (human) [5]): 89% | adhesion of COS-7 transfectants to 16E6.A5 monolayers (Human E-cadherin (human) [2]): 267% | adhesion of COS-7 transfectants to L-M E-cadherin transfectants (Human E-cadherin (human) [3]): 81%
